Data on 18 sequences can be found in the DeepSol protein solubility set.

The data set can be described thus: soluble on expression in E. coli; label from the status in PepcDB or PDB records.
As to “SSGSKSSNSSAKKSAGKPQQGGDLVVGSIGEPTLFNSLYSTDDASTDIENMLYSFLTKTDEKLNVKLSLAESIKELDGGLAYDVKIKKGVKFHDGKELTADDVVFTYSVPLSKDYKGERGSTYEMLKSVEKKGDYEVLFKLKYKDGNFYNNALDSTAILPKHILGNVPIADLEENEFNRKKPIGSGPFKFKEWKQGQYIKLEANDDYFEGRPYLDTVTYKVIPDANAAEAQLQAGDINFFNVPATDYKTAEKFNNLKIVTDLALSYVYIGWNEKNELFKDKKVRQALTTALDRESIVSQVLDGDGEVAYIPESPLSWNYPKDIDVPKFEYNEKKAKQMLAEAGWKDTNGDGILDKDGKKFSFTLKTNQGNKVREDIAVVVQEQLKKIGIEVKTQIVEWSALVEQMNPPNWDFDAMVMGWSLSTFPDQYDIFHSSQIKKGLNYVWYKNAEADKLMKDAKSISDRKQYSKEYEQIYQKIAEDQPYTFLYYPNNHMAMPENLEGYKYHPKRDLYNIEKWWLAK”, the “soluble on expression in E. coli” value is given as “soluble”.

For the sequence “MPTPEKRLRLMQLASNSLPVGGYSWSQGLEWAVEAGWVEDSAAFEHWQQLQMEQSFFAVDLPLLARLYRACEAGDPDSAGRWTAYLLACRETRELRDEERNRGAAFTRLLVDWQPDCPAEWRKLCQQSQLTGMAWLGVRWQISVSDLALSLGYSWIESAVMAGVRLVPYGQLAAQQLIMRLCARYAANMDSALATPDHAIGSATPLASIASARHETQYSRLFRS”, the “soluble on expression in E. coli” value is on record as “not soluble”.

For the sequence “MLLETTPIKANHLRSILDYIEQEQLTAEDRNHCMKLSKKKSIEKKTIHPTVNLNGSACFLQSPSDAIFCRHLSLQYALDSLRNGKGKVNLIKHYSSVESIQQHVPLVRDAEFRALLRHPPAGSRVIASKDFGFALDIFFCRMMANNVSHMSAILYIDNHTLSVRLRIKQSVYGQLNYVVSVYDPNDTNVAVRDTHRTARGFLSLDKFISSGPDAQTWADRYVRNCAIAILPLLPVGVPGAIFAGIASRMPFAPIHPSAMLLIMATGQSQQLITLFKQLPILPEKEIIEIITAQNSVGTPALEHHHHHH”, the “soluble on expression in E. coli” value was “soluble”.

Take “GCPHDCVFCNQNTITGEESKVNGDYVKSTVEDYLDTIPNKSATIEISFFGGTFTAINIEKQKELLSVARHYKEIGKIKYIRLSTRPDYIDDEILTNLKNYSVDIIELGVQSLDSEVLLKSGRGHTKEDVVKASRLIKKYGFTLGHQIMLGLPGDNAEKDIETTRKVICMKPNICRIYPALVIKDTAMEKMYNRGIYKPYDIEECVEI”: the “soluble on expression in E. coli” value is reported as “not soluble”.

Consider “MGKALIIGCGGVASVAVHKCVQNSEVFEEICIASRTKSKCDALKAKLDGGKTKITTAQVDANNVDELIALIEEVKPDVVMNLALPYQDLTIMDACLATKTNYLDTANYEPEDTAKFEYKWQWDYRERFEKAGITALLGSGFDPGVTGVFSAYALKHHFDEIEYIDILDCNAGDHGYPFATNFNPEINIREVSANGRYWENGEWVETNPMEIKRVYNFPEVGEKDMYLLYHEELESLAVNIPGIKRIRFFMTFSESYLTHLKCLENVGMTSIEPIEFEGKEIIPLQFLKAVLPDPASLGPRTKGKTNIGCIFKGKKDGKDKTYYLYNVCDHEECYKEVGSQAVSYTTGVPAMIGAMMLMTGKWNKPGVYNIEEFDPDPFMEALNKWGLPWKEDHNPQLVDSDPIKETELVR”, for which the “soluble on expression in E. coli” value is “not soluble”.

With “MNIQWFPGHMAKTRRILAENLKMVDVVVELLDARIPASSKNPEIDGIVKNKPKIVVLNKADLADEKISNEWSKWYNSQGYATIFIDSIKGTGIKQLKDQMRDIMKDRIERDRQRGRIFRPIRTMIVGIPNVGKSSLINKIAGKKSAVTGDRPGVTRNKQWINVNNEIQLMDTPGILWPKFEDKTVGINLAVTGAIKDEIIDTVELASILLEHLSKTYPENIKKRYKLESLQDKKGYELLEEAGKKRGCIISGGEVDLTRIAAIVLDEFRGGKIGRITLERPGDAVQELVAD”, the “soluble on expression in E. coli” value is listed as “not soluble”.

On to “MTSAWNEEWRRRRLPALAGQEWDLIVVGGGISGAGILREAARRGWRCLLLEQRDFAWGTSSRSSKMVHGGLRYIAKGQWRLTRDSVRERQRLLGEAPGLVEPLSFVMAHYRGGFPGPRLFGGLLSVYDALAGRRNHRFYDAAALRYLAPGLKEQRLLGGTRFFDAVTDDARLVLRVLAEARHDGGEAFNGMRVRELLREGGQVVGLRAEDRESGELFDFRCRALALATGAWADELRQPGGSEHIRPLRGSHLLLPAWRLPVAHAFSFMHATDRRPVFVFPWEGATVVGTTDLDHRDGLGEDARISRAELDYLLAACAQQFPAAAIEARDVLSTWAGVRPVVSSGDDSGKPSDEKREHVLWREPGCVTLAGGKLTTFRPLAVEVLQACAPLLGRTVTDDGAAVFGACEGPLIDGLGSGQRRRLAGRYGRDLVRLKRLVDTLGTDCVGASETLWAELAFAAEAEMVLHLDDLLLRRTRLGLLLPGGGAAYLPRIRALCQARLGWDDPRWEREQQAYLDLWRRHYSLPVLEHHHHHH”, for which the “soluble on expression in E. coli” value is listed as “not soluble”.

As to “MELQQRTLTIGLGNDIAVQTEGVGFIRGQLVADHAEINSVFKVVVKAALIVVKTLFADGYPHAIFQRFLMPDNRNRQHRADKAVGLVGIADDAEIRIAFCLISNAFFFTELIIGIGCGKADCGHFFVVFAAGSASVHKVSDFQNEFAVKPFAGKQHPHQYIGNHAGINRPPIISPQPCQQSGKRPVDYKKYAPNLRYPAGIAHGFFRQVGLLQPRKFFNHRLPGKQAAAEHRQHHQIDEDGIPIHRIMPPEHQYCGKKQCNKQSRITLLGQFGSQGAQQPQPAHRRRQPNKPARLPAVYSGLTKTSTALPRLAVLSAASSPCPDFC”, the “soluble on expression in E. coli” value is given as “not soluble”.

Take “MVATAFCDNIGFFKSPTEKRCDKDYECSGTDLCGHYVCTPLSEFRKCPEDKRCGFEYSCMSGVCRYMSDFDAERRFSNFGPDMKCKDSRVCPIGLHCSNGNCV”: the “soluble on expression in E. coli” value was “not soluble”.

With “MSLCELLGMSANVPTDICFSFTGLMQRGGKTGPHRDGWGIAFYEGKGFRTFKDPNPSSQSKIAELVQQYPIKSRAVISHIRQANRGGVNLENTHPFTRELWGQYWTFAHNGQLTGYQNLVTGRHRPVGETDSELAFCWLLNQMEQCYPEGPQDWPEMLRYVAQCCDELRALGVFNMLLSNGEYVMAYCTNHLYWITRRAPFGCAALLDEDVEINFQEETTPNDVVSVIATQPLTGNETWQRMKPGQFAFFHFGERIEDNAHVLMDVGFAPNRPGCQAPSQPLDEGGSHHHHHH”, the “soluble on expression in E. coli” value is “soluble”.

Turning to “MIQLIATPSNALVDEPVSIRATGLPPSQIVTIKATVKDENDNVFQSQAFYKTNEAGEVDLEKTPALGGDYVGVHPMGLFFSLKPKKAFHRLMKKDVMNSPLCICLDLYDSVNWLETVRIPSKASQRVQRWFVGPGVKREQIQEGRVRGALFLPPVEFRASLLASHGFAVLALAYFAYEDLPEKPQEVDLEYFEEAANFLLSHPKIQQPGIGVISTSKGAEIGLAMACYLKQVIATVCINGPTTITIFPLRYQDLVMTPIHPALERIQVHDSGALLFRYTTQYLHNKLNSQNILPVEKAQGKILFIVGENDECLDSKLHAQKAMDRLQRHGRSSGRMLAYPGAGHLIEPPYSPVCFVAWFPVLGQPMCFGGDLMAHAAAQEHSWREIQKFFRKHLLQSGSKL”, the “soluble on expression in E. coli” value is recorded as “not soluble”.

Regarding “SFQEQTTKSRDVNSFQIPLRDGVRELLPEDASRNRASIKSPVDIWIGGENMTALNGIVDGGRKFEAGQEFQINTFGSVNYWVSDEEIRVFKEYSARAKYAQNEGRTALEANNVPFFDIDVPPELDGVPFSLKARVRHKSKGVDGLGDYTSISVKPAFYITEGDETTDTLIKYTSYGSTGSHSGYDFDDNTLDVMVTLSAGVHRVFPVETELDYDAVQEVQHDWYDESFTTFIEVYSDDPLLTVKGYAQILMERT”, the “soluble on expression in E. coli” value was “soluble”.

Turning to “MAHHHHHHMPPQQPVGIMDNEEEFPVEEPPPMDPLIKLLHLRHTYTSQYVDEAVREEVKAAMLKIAHEHNMAPYLRFASEMFCWTVDEEQLRAMDAINATKLEELDARIKDAQENLGDVEVRDGLLARCHHFARIGDMEECLKFNNECSGKTLAAGSKLDLCFQRILLGLAFSDNEVAANGICSAHRLMKEGDWERRNRLKVYEGLFYVYIRDFKKGSELLLDSISTFAASELMDFNEFILVTVVASLPVLSRSQLKKCILDSPEVHSANIKNVFHLVTAIYECRYKEVFPTLDAVCQQLRGIVYLSQHVNYFFREVRVLVFKQFLDSYSSVTLKSMSNAFGIPSPVLDSMLGTLISNERIACKMDRVSDSITTYRGDTTNLDYHRIVKNGDLLLNRIQKLSRLAEV”, the “soluble on expression in E. coli” value is given as “not soluble”.

In the case of “SLEGGDTLEGSMAQLKKGLESGTVLIQFEQLYRKKPGLAITFAKLPQNLDKNRYKDVLPYDTTRVLLQGNEDYINASYVNMEIPAANLVNKYIATQGPLPHTCAQFWQVVWDQKLSLIVMLTTLTERGRTKCHQYWPDPPDVMNHGGFHIQCQSEDCTIAYVSREMLVTNTQTGEEHTVTHLQYVAWPDHGVPDDSSDFLEFVNYVRSLRVDSEPLLVHCSAGIGRTGVLVTMETAMCLTERNLPIYPLDIVRKMRDQRAMMVQTSSQYKFVCEAILRVYEEGLVQMLDPS”, the “soluble on expression in E. coli” value was “soluble”.

As to “MIPMSETKNELEILLEKAATEPAHRPAFFRTLLESTVWVPGSAAEGEAIVEDSALDLQHWEKEDGTTVIPFFTSLEALQQAVEDEQAFVVMPARTLFEMTLGETLFLNAKLPTGKEFMPREISLLLAEEGSPLSTQEVLEGGESLILSEVAEPPSQMIDSLTTLFKTIKPVKRAFLCAIKEHADAQPNLLIGIEADGEIEEIIHAAGNVATDTLPGDEPIDICQVRKGEQGISHFITEHIAPFYERRWGGFLRDFKQNRII”, the “soluble on expression in E. coli” value is reported as “not soluble”.

Consider “MSLDEIVGIGFKRADAIARNMGVHPHSKYRIHSGIKYMLNTFQGEGHTYAPGVKLIQRAEELLRVEEGQVEGAIQELALNQEIQLERIDDEIIVYSMPYYYAESNVCKKLISLAQVELDPIEMDIDEELQKIEQAEEMTLAKQQKEAIKEAIENGISVITGGPGTGKTTTINSLIKVFEKLELKMLLAAPTGRASKRMTEATGKESKTIHRLLELGFGDDREGMLFQRNEDNPLDCHVIIIDEVSMVDIILMNSLMKSIARGTRVVLVGDVDQLPSVGAGNVLRDIIDSKVVKTIRLTEIFRQAQESMIVVNAHRINQGLYPQLNEKQKDFYFMKRNAKEDVLATVVELVRDRLPKHYQFDALRDIQVLTPMKKGETGTLNLNKELQAALNPPNVSKAEKDLKEKIFREGDKVMQIKNNYTLKWRCLDPMAEEQKGEGVFNGDIGYVQSIDTEAEELVILFDDQKQVNYSFTQLDELELAYSVTIHKSQGSEFPVVVIPITWGPPMLLTRNLLYTAVTRARSLVVLVGVESYLKKMVDNNKIIERYSGLGRRLGKYFEEGHHHHHH”, for which the “soluble on expression in E. coli” value is “not soluble”.

Take “MGSDKIHHHHHHMQTEVFSDIFPLLSTATPQTLEWLLNIAIDHEYPTGRAVLMEDAWGNAVYFVVSGWVKVRRTCGDDSVALAILGRGDFFGEMAILDESPRSTDVIALSPVKLLSISRERFIQILFKDPQLHHRMLQLMVRRLRQINQRLQIRSSPPAVKLAHTLVSLGESYGQESEQGREIFNIPFKDLAEVTEIGVEETSKIMDKLHDKGWIKIDSANNIIYLINFKQLLNLAGKV”: the “soluble on expression in E. coli” value is recorded as “not soluble”.

For “MSLDGTVLVADDDRTIRTVLTQALTRAGCKVHATSSLTTLMRWVAEGKGDVVISDVVMPDGNGLEMLPKIAQDRPGLPVIVISAQNTIMTAIQAAEAEAYDYLPKPFDLPDLMKRTARALEQKRRTVSSEPREEGAERPDELPLVGRTPAMQALYRLVAKVMNTDLPVMISGESGTGKSLIARTIHDFSDRRTLPFISVTASDLMDLEGPARVLARVKGGTLLIDEIADIGDELQGRIVRMMDAPGDYVPRFMATSQGDPARAMEAGKLRRDLYYRLCGAPIHVPALRERVDDIPLLTEYFLAKAERDGAPKRWLGAGAAELFRIYSWPGNVRQLENAVRRLSLISRAEEISRTEVEQVLGNQPELEPALGGRGDSEKLSASVARHLQRYFDLHGNVLPPPGLYQRILREVEAPLIEIALEASGGNQAKCADLLGINRNTLRKKITDLDIEVTREGHHHHHH”, the “soluble on expression in E. coli” value is recorded as “soluble”.
